Source: patent publication US20070299011A1 (TSINGHUA UNIVERSITY, published 2007)

Biological target: T1, myc-tagged APP-AICD(C99) (UniProt P05067 672-770)
T1 construct: domain: APP-AICD(C99); also called APP-AID(C99); not shown: myc tag
Assay: co-IP from 293T lysate: anti-myc IP, anti-HA Western blot

B1: HA-168 deletion mutant 118-264AA (other)
chain: GHPPTALESVMLGVGSRSVAGVCMSPITVIKTRYESGKYGYESIYAALRSIYHSEGHRGLFSGLTATLLRDAPFSGIYLMFYNQTKNIVPHDQVDATLIPITNFSCGIFAGILASLVTQPAGVIKTHMQLYPLKFQWIGQAVTLIFK
notes: not shown: HA tag
B1: binds.
